The record followed here is doi:10.1101/2025.03.07.642005 (bioRxiv, 2025).

Assay [1] concerns the target T1, GatA, subunit A of the aminoacyl-tRNA amidotransferase complex GatCAB (Arabidopsis, UniProt Q9LI77 45-537).
T1 sequence: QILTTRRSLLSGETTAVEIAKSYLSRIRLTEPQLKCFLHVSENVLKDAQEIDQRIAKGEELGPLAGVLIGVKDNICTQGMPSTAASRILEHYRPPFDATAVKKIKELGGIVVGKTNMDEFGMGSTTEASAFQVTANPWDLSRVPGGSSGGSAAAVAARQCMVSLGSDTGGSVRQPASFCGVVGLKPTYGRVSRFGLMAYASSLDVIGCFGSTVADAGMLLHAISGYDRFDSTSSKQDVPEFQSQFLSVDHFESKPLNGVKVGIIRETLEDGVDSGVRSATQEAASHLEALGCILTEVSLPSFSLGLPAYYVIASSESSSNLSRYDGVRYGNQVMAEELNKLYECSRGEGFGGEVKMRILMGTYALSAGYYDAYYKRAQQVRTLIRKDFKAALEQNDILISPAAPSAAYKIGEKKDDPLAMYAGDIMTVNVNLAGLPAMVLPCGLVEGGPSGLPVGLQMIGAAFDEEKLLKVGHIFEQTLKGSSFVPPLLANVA
The assay is described as follows: SEC. On the technique in general: SEC sorts molecules by how far they enter the pores of the column.

Assay [2] has as its target T2, GatB, subunit B of the aminoacyl-tRNA amidotransferase complex GatCAB (Arabidopsis, UniProt Q9FV81 60-550).
T2 sequence: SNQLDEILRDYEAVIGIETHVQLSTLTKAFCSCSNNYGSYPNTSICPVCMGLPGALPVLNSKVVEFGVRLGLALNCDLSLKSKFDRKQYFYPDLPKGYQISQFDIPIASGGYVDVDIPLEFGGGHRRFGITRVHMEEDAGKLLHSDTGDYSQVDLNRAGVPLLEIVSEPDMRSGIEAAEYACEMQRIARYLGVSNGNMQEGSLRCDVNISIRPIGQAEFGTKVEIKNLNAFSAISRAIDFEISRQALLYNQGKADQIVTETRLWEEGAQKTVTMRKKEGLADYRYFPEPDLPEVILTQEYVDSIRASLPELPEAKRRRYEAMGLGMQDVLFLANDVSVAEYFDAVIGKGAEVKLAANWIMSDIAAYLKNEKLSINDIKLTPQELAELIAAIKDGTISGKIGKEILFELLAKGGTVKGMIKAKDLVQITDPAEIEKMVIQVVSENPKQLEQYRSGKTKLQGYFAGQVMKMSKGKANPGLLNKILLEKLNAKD
Put plainly: SEC.

B1: GatC, subunit C of the aminoacyl-tRNA amidotransferase complex GatCAB (natural protein)
chain: RSYSSDSDSSVLQPPDVARLAQTARISLTPAEIEECETKIRRVIDWFGQLQQVDVNSVEPAIRAEMDGGNLREDAPETFDNRDSIRASIPSFEDAYLKVPKILNKE
Consider B1, for which the binding result in assay [1] and in assay [2] was “binds” in each case.
